# Test results: patent US20070016969
# Target: hirudin in milk of BC1-GB-Hir transgenic mice (UniProt P01050)
# Sequence (P01050 whole entry): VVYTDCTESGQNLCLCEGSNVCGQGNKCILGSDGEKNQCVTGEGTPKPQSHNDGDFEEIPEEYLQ
substance,measurement,value
"thrombin (thrombin solution, 50 U/ml)","anti-coagulation activity (chromogenic thrombin substrate Tos-Gly-Pro-Arg-4-NA, A405)",milk collected from lactating transgenic mice of the invention has a high level of anti-coagulation activity in comparison with that from non-transgenic mice (normal mouse milk)
